Results published in a protein production outcome set (Wang et al. 2014).

Test: label from the status in PepcDB records

With “MAWNTNLRWRLPLTCLLLQVIMVILFGVFVRYDFEADAHWWSERTHKNLSDMENEFYYRYPSFQDVHVMVFVGFGFLMTFLQRYGFSAVGFNFLLAAFGIQWALLMQGWFHFLQDRYIVVGVENLINADFCVASVCVAFGAVLGKVSPIQLLIMTFFQVTLFAVNEFILLNLLKVKDAGGSMTIHTFGAYFGLTVTRILYRRNLEQSKERQNSVYQSDLFAMIGTLFLWMYWPSFNSAISYHGDSQHRAAINTYCSLAACVLTSVAISSALHKKGKLDMVHIQNATLAGGVAVGTAAEMMLMPYGALIIGFVCGIISTLGFVYLTPFLESRLHIQDTCGINNLHGIPGIIGGIVGAVTAASASLEVYGKEGLVHSFDFQGFNGDWTARTQGKFQIYGLLVTLAMALMGGIIVGLILRLPFWGQPSDENCFEDAVYWEMPEGNSTVYIPEDPTFKPSGPSVPSVPMVSPLPMASSVPLVP” the protein production was “not failed”.

In the case of “MDRNYSNWQSLTSLALFLLPFLFIGWLFDLFWPVTALALLGLVCWHYYYQQKLIKWLWQSRTLMPPSAPGSWSYIYDGIYRSQRRSQKRRKALARLLRRFREAAEALPDAAIVFRADGALLWSNKLAQFYFGLRWPDDAGQRLSNLIRHPEFYAYLNAGNFDEELTIPSPIRESLDIEIRIMPYSEDQFLLVARDVTQVKRLENLRREFVANVSHELKTPLTVLQGYLEMMDEPQQTPPAMLKKAVENMNAQSTRMANLVDQLLTLSRMETPSNDVFDHEVDMPALLEQLESEAKRLNEVKQHKIEFDVAPVRIYGKENLLRSAMQNLITNAINYTPDGGEIKVTWKTVAGGVEFSVKDNGKGIAAEHLPRLTERFYRVEDDRNSASGGTGLGLSIVKHAIEHHNSQLDINSSLEKGSRFSFRIPSGLLVS”, the protein production is reported as “failed”.

For “MEQEILALFEKILSRKVGFNDELIESDILDSILAVDLVLEVQDVYGCVIPPTEVATVLKTPADLARYIEENRG”, the protein production was “failed”.

For “MFKVLQCLTIDHDYRYTAAAVVVCMLGSFVTMRLFSKARLATGLQKVNWLFLAGVNGGAAIWTTHFVAMLGYVAAGDVGYDPYLTGLSLLIAITTTTAGFGISAYGGRSVLVEAGGTILGLGIAAMHYTGMAAYNVQGMIFWDQAYVIASLVLGSVLGAIAVNRIARPLNRFCQYSAVAFLILAIASMHYTGMASMSFAFDPRIIIPENLLPPAIMGGGAIAVTLLLLALGLSTYVIDAQSTQQAVARYRHLSLHDPLTGIPNRAAFIEHLNRRTRHISMGAHTALLSIDLDRFKEINDVHGHAAGDAVLRAIADRASSVLKAGEFLARMGGDEFVAMTHSYYTRADGAEFAQRLIEQISKPVEWNGQTFSVGASVGISVRNTGSIDADTLMAQADVAMYRAKSATSDTICFYDKSMDEAARARNALAIAMRSGLANNEFELYYQQQNDTKSGSIVGFEALLRWKHPERGMVSPVEFIPIAEQTGFIVELGEWVLREACAQAARWKKSLAIAVNVAPQQLADNDFPDKVERILAETGLAPERLELEITEGSIIADHRHALVTIRKLKSLGVKIAMDDYGTGYSSLSTLQSFPFDKIKIDRAFIDGLSTNVQSEAIVRSTLILAHSLNIPVLAEGVETKAHIEFLRREGCLQVQGFFFGKPGPLTSIANLVDDTFLSAEDETEEASGRRYIKVVR”, the protein production was “failed”.

With “MKILSIHDLQIIRKRAEHHLSLREESNEKVSEKCCGLASGTTHLQILICGGTGCKASSSQGITENLQKAIERNGITDKVDVITVGCFGFCEKGPIVKIIPDNTFYTQVTPEDAEEIISEHIIGGRRIERLLYIDPKTEQTVSDSKHMDFYRKQLRIALRNCGFIDSENIEEYIAREGYFALADCLLNKQPADVIDIIKRSGLRGRGGGGFPTGLKWEFASKQVSNVKYVVCNADEGDPGAFMDRSIMEGDPHSIVEAMCICGYSIGSSKGLVYIRAEYPLAINRLKKAIEQAREYGLLGDHILGTDFSFDIEIRYGAGAFVCGEETALIHSMEGKRGEPTLKPPFPAESGYLGKPTNVNNVETLANIPIILTKGAEWFASIGTERSKGTKVFALAGKINNVGLIEVPMGTTLREVIYEIGGGIKGGKKFKAVQTGGPSGGCLTEKHLDTPIDFDNLLAAGSMMGSGGMIVMDEDDCMVSVARFYLDFTVEESCGKCTPCRIGNKRLLELLNKITEGRGTEKDLDTLATLGRVIKDTALCGLGQTSPNPVLSTLDNFRDEYLEHVRDKTCRAKQCKSLLTYTINPELCIGCHLCAKNCPADAISGLVRKPHVIHPEKCIKCGMCMARCKFKAILVC” the protein production was “failed”.

In the case of “MSTDTSGVGVREIDAGALPTRYARGWHCLGVAKDYLEGKPHGVEAFGTKLVVFADSHGDLKVLDGYCRHMGGDLSEGTVKGDEVACPFHDWRWGGDGRCKLVPYARRTPRMARTRSWTTDVRSGLLFVWHDHEGNPPDPAVRIPEIPEAASDEWTDWRWNRILIEGSNCRDIIDNVTDMAHFFYIHFGLPTYFKNVFEGHIASQYLHNVGRPDVDDLGTSYGEAHLDSEASYFGPSFMINWLHNRYGNYKSESILINCHYPVTQNSFVLQWGVIVEKPKGMSEEMTDKLSRVFTEGVSKGFLQDVEIWKHKTRIDNPLLVEEDGAVYQLRRWYEQFYVDVADIKPEMVERFEIEVDTKRANEFWNAEVEKNLKSREVSDDVPAEQH”, the protein production is reported as “not failed”.

With “MAKLVSIIVSVYNKEQFLEKCIESLIDLKMDKNNIEAIFVDDCSTDESVNIIKHYEKDYDFIKLIQLPENTGSPSEPRNIGMREAQGKYITLLDADDWLDKEGFPQVIEKVNKDDADLGFGQSFKHKSKNVKYHARFTSYKEASHLKPQDISKIFRAVGPPGKVFKRSLVMDHHIEFEHMKYGEDKLFFFQLFGKVDDITMSTIPMYHVNRYDENKSLVQQTSMLDKANSNLEVLDRTCHMDMSSELKHMALARMVEVDFISRFLRTKTFIKSADKEKFYAVIEKVERKIKEQGIDINTLITNPVFKQIYTLYHHADESVFVNFTKDVVNDQWRYIIQDGIVFRDFVHQYDMIKPTVVDCYPVYEGTQMMGENKYEVIRVMKPDDINIQSVSLVEINNAANEYEVTYKYSDDRIYVPHEEFEKLNKDININFNVNYGESGRSLVYASYPSFNDVFKMKRQNFKVEFVHKKNENKAQQVTNRKSEYFKRITNPMMTLKKIKIYKDVSFKEEVGSLEAGTRVEASDIQYTSKGTPRLVLDDGSIITANKDFITLINTSGLNKYITEVPKKVKVVKACKLYDSRDFKDNTVRKLKKGDVLTIRDIIYTNNSTPRLVTQEGLFLTANKDFIKIIK” the protein production was “failed”.

For “MGGDLRKCSFIKLEAHQNRVMTCVWCNKKGLLATSGNDGTIRVWNVTKKQYSLQQTCVFNRLEGDAEESLGSPSDPSFSPVSWSISGKYLAGALEKMVNIWQVNGGKGLVDIQPHWVSALAWPEEGPATTWSGESPELLLVGRMDGSLGLIEVVDVSTMHRRELEHCYRKDVSVTCIAWFSEDRPFAVGYFDGKLLMGTKEPLEKGGIVLIDAHKVKTIFFMLAFLFCLVFCVYVF”, the protein production was “failed”.

For “MAKSVNALINEAIEAGKKRDYKTSILILENLAAEGLAEVSSPFYGEKKGNPEIYLYLSRAWAAVNNYGRSIAYGKAYIKRCSSDPSANSTDLPMGFFFLGRSYLAAGQYDRAVYCLEKSLKLNPHPLETRAMLGSAYLKWKKPRLARETFEEALKFAPSDAKLNAGYLNSLFVEGIYELRNGNADMARQMFSFAIKNGIDGVAPRLYLAHALKMEGYLPEALGQYEAACEFEPDDPALKWYPAMIKMQLGDTTAAAEDFAKLGIEIPDDGVSDRFFAMGVIKKHMERGDYSRAAVAARIFIKTFGSDAEIRLLAAEAQRSMGNTNTALGHYKCALEHEPENPYPHYGIMLALQEAYRWEELSAEILRAEASGVCDADDIYYYKIITAAHIDNPPEEVLPHLQALIQNGRSDSAIFNAMGCCYIKLNMPDLALNWYERALSINEKDEEAKIGIIASYENLQLNKEADEAYNSYLNEWGKNIYIRRDYVLFLEKCERWEDAGNQLEILMSQGKKVNFDPELALFRRKAGQYQKAAILYRKMLRAKPEERLLLHNLVFCLDKMGQTKVSLDLLKAAEKMFGIKTDSMLIKGILQMRLKKKEDAIKTFQYILEKEPKNKHAAEFLEKAYGK”, the protein production was “failed”.

In the case of “MPPVPGVPFRNVDNDSPTSVELEDWVDAQHPTDEEEEEASSASSTLYLVFSPSSFSTSSSLILGGPEEEEVPSGVIPNLTESIPSSPPQGPPQGPSQSPLSSCCSSFSWSSFSEESSSQKGEDTGTCQGLPDSESSFTYTLDEKVAELVEFLLLKYEAEEPVTEAEMLMIVIKYKDYFPVILKRAREFMELLFGLALIEVGPDHFCVFANTVGLTDEGSDDEGMPENSLLIIILSVIFIKGNCASEEVIWEVLNAVGVYAGREHFVYGEPRELLTKVWVQGHYLEYREVPHSSPPYYEFLWGPRAHSESIKKKVLEFLAKLNNTVPSSFPSWYKDALKDVEERVQATIDTADDATVMASESLSVMSSNVSFSE”, the protein production is reported as “failed”.
